Experimental data reported in patent US20240218339.

Assays:
[1] = test system: T1, MG31-1 (uncultivated microorganism (metagenomic)); test: cell_activity; settings: HEK cells
T1 sequence: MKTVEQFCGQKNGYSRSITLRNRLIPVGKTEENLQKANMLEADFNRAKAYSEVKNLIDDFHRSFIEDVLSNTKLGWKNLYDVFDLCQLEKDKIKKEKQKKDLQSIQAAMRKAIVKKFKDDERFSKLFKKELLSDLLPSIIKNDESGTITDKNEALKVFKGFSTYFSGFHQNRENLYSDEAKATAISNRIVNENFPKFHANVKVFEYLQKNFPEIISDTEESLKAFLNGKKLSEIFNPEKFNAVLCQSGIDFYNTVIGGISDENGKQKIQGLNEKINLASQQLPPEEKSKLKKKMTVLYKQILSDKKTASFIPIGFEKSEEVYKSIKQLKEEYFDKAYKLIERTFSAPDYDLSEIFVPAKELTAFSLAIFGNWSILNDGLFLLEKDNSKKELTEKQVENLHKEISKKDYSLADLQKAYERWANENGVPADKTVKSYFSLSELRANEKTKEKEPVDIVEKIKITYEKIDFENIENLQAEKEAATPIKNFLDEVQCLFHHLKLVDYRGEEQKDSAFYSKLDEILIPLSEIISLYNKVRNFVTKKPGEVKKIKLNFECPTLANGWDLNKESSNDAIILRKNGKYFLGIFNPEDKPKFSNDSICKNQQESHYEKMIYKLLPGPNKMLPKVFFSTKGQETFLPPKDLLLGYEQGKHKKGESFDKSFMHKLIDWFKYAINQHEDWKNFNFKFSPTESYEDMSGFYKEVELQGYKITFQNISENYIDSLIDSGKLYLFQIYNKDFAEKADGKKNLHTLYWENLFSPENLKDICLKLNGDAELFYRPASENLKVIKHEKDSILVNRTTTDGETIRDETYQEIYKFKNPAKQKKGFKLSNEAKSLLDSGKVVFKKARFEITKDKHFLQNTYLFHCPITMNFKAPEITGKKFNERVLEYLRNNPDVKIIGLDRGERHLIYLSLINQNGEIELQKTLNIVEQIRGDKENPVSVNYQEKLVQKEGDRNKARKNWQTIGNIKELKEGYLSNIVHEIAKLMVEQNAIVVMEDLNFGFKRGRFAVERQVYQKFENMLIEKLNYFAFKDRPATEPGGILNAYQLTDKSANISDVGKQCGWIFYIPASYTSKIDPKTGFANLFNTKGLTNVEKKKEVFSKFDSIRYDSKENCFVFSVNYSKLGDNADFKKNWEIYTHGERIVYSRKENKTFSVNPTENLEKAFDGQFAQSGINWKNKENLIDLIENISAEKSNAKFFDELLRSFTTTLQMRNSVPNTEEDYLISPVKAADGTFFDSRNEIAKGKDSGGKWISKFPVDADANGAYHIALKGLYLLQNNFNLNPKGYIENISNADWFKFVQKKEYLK

[2] = test system: T2, MG29-1 (uncultivated microorganism (metagenomic)); test: cell_activity
T2 sequence: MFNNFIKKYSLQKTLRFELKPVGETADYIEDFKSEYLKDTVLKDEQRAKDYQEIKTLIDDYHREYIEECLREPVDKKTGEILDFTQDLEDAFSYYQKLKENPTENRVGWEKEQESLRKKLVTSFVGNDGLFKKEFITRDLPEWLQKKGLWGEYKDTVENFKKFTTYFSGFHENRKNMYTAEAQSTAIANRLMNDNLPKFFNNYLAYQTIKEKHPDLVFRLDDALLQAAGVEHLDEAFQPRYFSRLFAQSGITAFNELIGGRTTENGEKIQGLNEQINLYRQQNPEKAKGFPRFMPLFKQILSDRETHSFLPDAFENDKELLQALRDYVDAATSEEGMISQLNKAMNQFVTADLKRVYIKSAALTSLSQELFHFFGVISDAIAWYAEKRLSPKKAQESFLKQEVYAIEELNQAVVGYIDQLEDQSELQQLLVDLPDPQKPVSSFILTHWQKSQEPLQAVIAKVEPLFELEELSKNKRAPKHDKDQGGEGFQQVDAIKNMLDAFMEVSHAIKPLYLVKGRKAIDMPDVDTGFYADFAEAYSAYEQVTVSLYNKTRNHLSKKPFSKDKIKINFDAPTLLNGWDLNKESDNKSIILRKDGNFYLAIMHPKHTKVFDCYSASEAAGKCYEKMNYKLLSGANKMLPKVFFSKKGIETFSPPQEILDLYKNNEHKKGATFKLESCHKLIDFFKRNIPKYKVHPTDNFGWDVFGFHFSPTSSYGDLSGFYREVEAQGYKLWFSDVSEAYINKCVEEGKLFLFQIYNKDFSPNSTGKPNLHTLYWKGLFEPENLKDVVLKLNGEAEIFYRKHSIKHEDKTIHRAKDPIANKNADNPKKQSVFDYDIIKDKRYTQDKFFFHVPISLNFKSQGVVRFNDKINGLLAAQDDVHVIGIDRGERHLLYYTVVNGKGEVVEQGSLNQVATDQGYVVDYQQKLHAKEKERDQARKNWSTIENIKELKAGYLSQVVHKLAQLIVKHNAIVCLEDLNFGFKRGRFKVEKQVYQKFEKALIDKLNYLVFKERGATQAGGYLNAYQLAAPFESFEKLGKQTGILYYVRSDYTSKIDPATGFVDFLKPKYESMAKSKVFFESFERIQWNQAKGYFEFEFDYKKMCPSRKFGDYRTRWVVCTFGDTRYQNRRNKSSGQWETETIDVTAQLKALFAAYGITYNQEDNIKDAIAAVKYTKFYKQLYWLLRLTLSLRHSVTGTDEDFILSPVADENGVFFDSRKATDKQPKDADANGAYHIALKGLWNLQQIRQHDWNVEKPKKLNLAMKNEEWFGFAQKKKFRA

“AAUUUCUACUAUUGUAGAUNCUUGGACCUUGUUUUGCUUACUGU / ACAAATTTTACTTGGACCTTGTTTTGCTTACTGT / ACAGTAAGCAAAACAAGGTCCAAGTAAAATTTGT” showed an activity ([1]; PAM TTTA, SD 0.75) of -0.32 % NHEJ.

Sequence “AAUUUCUACUAUUGUAGAUNGGAGGUCAGAAAUAGGGGGUCCAG / TAGCTGTTTGGGAGGTCAGAAATAGGGGGTCCAG / CTGGACCCCCTATTTCTGACCTCCCAAACAGCTA [MG31-1 guide VEGFA target7 ; VEGFA target7]” has an activity ([1]; PAM YTTn (TTTG), SD 8.67) of 17.4 % NHEJ.

“AAUUUCUACUAUUGUAGAUNCGCACUAAGGAAAGUGCAAAGU / TTTGCGCACTAAGGAAAGTGCAAAGT / ACTTTGCACTTTCCTTAGTGCGCAAA [hAlb_g87 sgRNA ; human albumin intron 1 g87 site]” showed an activity ([2]; PAM TTTG, RNP nucleofection HepG2, guide backbone inferred) of 97 % indel.

“AAUUUCUACUAUUGUAGAUNCCGAUCGUUACAGGAAAAUCUG / GTTCCCGATCGTTACAGGAAAATCTG / CAGATTTTCCTGTAACGATCGGGAAC [mAlb29-1-2 sgRNA ; mouse albumin intron 1 mAlb29-1-2 site]” was tested, and the activity ([2]; PAM GTTC, Hepa1-6 RNP nucleofection, guide backbone inferred) was 0 % indel.

Sequence “AAUUUCUACUAUUGUAGAUNGCCAGAGCCGGGGUGUGCAGACGG / TCCCTCTTTAGCCAGAGCCGGGGTGTGCAGACGG / CCGTCTGCACACCCCGGCTCTGGCTAAAGAGGGA [MG31-1 guide VEGFA target9 ; VEGFA target9]” has an activity ([1]; PAM YTTn (TTTA), SD 1.92) of 6.72 % NHEJ.

“AAUUUCUACUAUUGUAGAUNUGUGAGGGAGCACCGUUCUCUAGA / TACATAGTTGTGTGAGGGAGCACCGTTCTCTAGA / TCTAGAGAACGGTGCTCCCTCACACAACTATGTA” gave an activity ([2]; PAM KTTG (GTTG), HEK293T plasmid transfection, SD 1.57) of 30.4 % NHEJ.

With “AAUUUCUACUAUUGUAGAUNUGAAGUCUUACAAGGUUAUCUUAU / TTTGTATTTGTGAAGTCTTACAAGGTTATCTTAT / ATAAGATAACCTTGTAAGACTTCACAAATACAAA [MG31-1 guide albumin target4 ; Albumin target4]” the activity ([1]; PAM YTTn (TTTG), SD 2.72) was 7.05 % NHEJ.

“AAUUUCUACUAUUGUAGAUNGAAAGGGGGUGGGGGGAGUUUGCU / ATGGGCTTTGGAAAGGGGGTGGGGGGAGTTTGCT / AGCAAACTCCCCCCACCCCCTTTCCAAAGCCCAT [MG29-1 guide VEGFA target8 ; VEGFA target8]” gave an activity ([2]; PAM KTTG (TTTG), HEK293T plasmid transfection, SD 10.17) of 30.1 % NHEJ.
